The results in this text go back to patent US20250228937A1, “MEDICAMENT FOR TREATMENT AND/OR PREVENTION OF CANCER” (TORAY INDUSTRIES, INC., priority 2021, published 2025).

In this assay the target is T1, CAPRIN-1 protein (Homo sapiens, UniProt Q14444).
T1 construct: made in house
T1 sequence (Q14444 1-709): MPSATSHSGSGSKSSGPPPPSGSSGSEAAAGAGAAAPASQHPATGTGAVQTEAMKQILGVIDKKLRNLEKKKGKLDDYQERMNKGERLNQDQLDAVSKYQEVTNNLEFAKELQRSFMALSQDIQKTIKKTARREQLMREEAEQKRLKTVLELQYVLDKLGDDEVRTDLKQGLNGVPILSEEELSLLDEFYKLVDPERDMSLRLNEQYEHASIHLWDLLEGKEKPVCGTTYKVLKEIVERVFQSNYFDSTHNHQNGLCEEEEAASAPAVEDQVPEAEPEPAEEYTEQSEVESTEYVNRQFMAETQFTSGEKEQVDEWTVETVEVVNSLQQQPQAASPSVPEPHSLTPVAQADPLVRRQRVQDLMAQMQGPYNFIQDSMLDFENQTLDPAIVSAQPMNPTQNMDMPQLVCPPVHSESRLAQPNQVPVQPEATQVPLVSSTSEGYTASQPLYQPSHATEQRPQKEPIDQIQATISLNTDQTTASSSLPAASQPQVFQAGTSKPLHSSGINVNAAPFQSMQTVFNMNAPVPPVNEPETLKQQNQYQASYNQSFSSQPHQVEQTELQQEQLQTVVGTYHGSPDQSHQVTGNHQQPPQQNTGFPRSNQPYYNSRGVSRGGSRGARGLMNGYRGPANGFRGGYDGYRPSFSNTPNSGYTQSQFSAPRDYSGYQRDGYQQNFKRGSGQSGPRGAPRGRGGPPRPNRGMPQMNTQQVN
In words: ELISA using CAPRIN-1 protein immobilized on a plate. In kind it is binding. How it is done: One hundred (100) μg of a human CAPRIN-1 recombinant protein produced according to Example 3 of WO2010/016526 was mixed with an MPL+TDM adjuvant (Sigma) in an amount equivalent to that of the antigen protein. The mixture was used as an antigen solution per mouse. The antigen solution was administered intraperitoneally to 6-week-old Balb/c mice (Japan SLC Inc.) and then further administered 3 times […] every week for completion of immunization. A spleen was removed on day 3 after the final immunization and then ground between two sterilized glass slides. Spleen cells were obtained by repeating the following procedure three times: washing with PBS(−) (manufactured by Nissui Pharmaceutical Co., Ltd.), centrifuging at 1500 rpm for 10 minutes, and removing supernatant. The obtained spleen cells were mixed with mouse myeloma cell SP2/0 (purchased from ATCC) at a ratio of 10:1. The PEG solution prepared by mixing 200 μl of RPMI1640 medium containing 10% FBS heated at 37° C. and 800 μl of PEG1500 (Boehringer) was added to the cells. The solution was incubated for 5 minutes for cell fusion. Centrifugation was performed at 1700 rpm for 5 minutes to remove supernatants. […] Absorbance at 450 nm and absorbance at 595 nm were measured using an absorption spectrometer. As a result, a plurality of hybridomas producing antibodies with high absorbances were selected. […]
(ELISA stands for enzyme-linked immunosorbent assay.)

B1: (ab): mouse monoclonal antibody against CAPRIN-1 described in WO2013/125630, heavy-chain variable region SEQ ID NO: 114, light-chain variable region SEQ ID NO: 115 (antibody, listed as Mus musculus, V domains shown)
VH: GPELVKPGASVKMSCKASGYTFTSYVMHWVKQKPGQGLEWIGYINPYNDGTKYNEKFKGKATLTSDKSSSTAYMELSSLTSEDSAVYYCARRYYYGSSGGYFDVWAQDHVRT
VL: DVQITQSPSYLAASPGETITINCRASKSISKYLAWYQEKPGKTNKLLIYSGSTLQSGIPSRFSGSGSGTDFTLTISSLEPEDFAMYYCQQHNEYPYTFGGGTKLEIKR
Consider B1, for which the “reactivity with CAPRIN-1 protein” value is “exhibiting reactivity”.
